Measured values from the RNAGym collection of RNA variant scans (doi:10.1093/nar/gkz1192).

B1: CPEB3 Ribozyme (parent)
chain: UAACAGGGGGCCACAGCAGAAGCGUUCACGUCGCAGCCCCUGUCAGAUUCUGGUGAAUCUGCGAAUUCUGCUGUAUAUCUC

Variants of: B1
Assay: self-cleavage, relative activity (ratio to wild type); higher = more cleavage; in vitro, sequencing
Method in brief: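 After error-prone PCR and barcoding, CPEB3 ribozyme mutant libraries were transcribed with T7 RNA polymerase at 37°C for 5 hours, then given 15 min with DNase I before an EDTA stop, and they cleaved during both steps. Reverse transcription with template switching preceded Illumina sequencing. Relative activity divides a variant's cleaved/total read fraction by the unmutated ribozyme's. At least 5 reads were required per variant, and three batches were averaged.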

Row | Variant | self-cleavage
1 | U1C A56U | 0.52
2 | U1C A56G | 0.73
3 | U1A A3C | 1.09
4 | U1A A3U | 1.2
5 | U1A A3G | 1.1
6 | U1C A45C | 0.16
7 | U1C A45U | 0.39
8 | U1C A45G | 0.81
9 | U1A A15U | 0.69
10 | U1A A15G | 0.72
11 | U1C C14U | 1.07
12 | U1C A2C | 0.94
13 | U1C A2G | 0.8
14 | U1C A2U | 1.04
15 | U1A A56G | 0.71
16 | U1A A56U | 0.61
17 | U1A U58A | 0.29
18 | U1A U58C | 0.66
19 | U1A G61C | 0.29
20 | U1A A18U | 0.41
21 | U1A A18G | 0.57
22 | U1A A18C | 0.53
23 | U1C A77U | 0.97
24 | U1C A77G | 0.91

Row | Variant | self-cleavage
25 | U1A A20U | 0.32
26 | U1A A20G | 0.72
27 | U1A U66A | 0.42
28 | U1A U66C | 0.4
29 | U1A A65C | 0.12
30 | U1A A65G | 0.48
31 | U1C A21C | 0.35
32 | U1C A21U | 0.3
33 | U1C A21G | 0.24
34 | U1C C11G | 0.43
35 | U1C C11U | 0.36
36 | U1C A57G | 0.85
37 | U1A C50A | 0.47
38 | U1A U26A | 1.02
39 | U1A U26C | 0.47
40 | U1A A64G | 0.84
41 | U1A A64U | 0.28
42 | U1A C11U | 0.46
43 | U1A C11G | 0.49
44 | U1A U25C | 0.41
45 | U1A U25A | 0.34
46 | U1A A5U | 0.97
47 | U1A A5G | 0.68
48 | U1A U80C | 1.14

Row | Variant | self-cleavage
49 | U1A A21U | 0.27
50 | U1A A21C | 0.28
51 | U1A A21G | 0.55
52 | U1C A18C | 1.09
53 | U1C A18U | 0.36
54 | U1C A18G | 0.48
55 | U1A G63A | 0.89
56 | U1A U78A | 0.99
57 | U1A U78C | 0.91
58 | U1A G22A | 0.23
59 | U1A G7A | 0.1
60 | U1A G7U | 0.3
61 | U1A A2U | 1.09
62 | U1A A2G | 0.87
63 | U1A C59U | 0.46
64 | U1C A35G | 1.24
65 | U1C A35U | 0.33
66 | U1C A35C | 0.71
67 | U1A U43G | 0.54
68 | U1A U43C | 0.58
69 | U1A U43A | 1.08
70 | U1A C32U | 0.3
71 | U1A C32G | 0.09
72 | U1A U74A | 1.25

Row | Variant | self-cleavage
73 | U1A U74C | 1.18
74 | U1A U49A | 0.58
75 | U1A U49C | 0.52
76 | U1A G73U | 1.44
77 | U1A G73A | 1.21
78 | U1A C37A | 0.31
79 | U1A C37G | 1.04
80 | U1C A20G | 0.59
81 | U1C A20U | 0.29
82 | U1A U72C | 1.02
83 | U1A U72G | 0.75
84 | U1A U72A | 0.55
85 | U1C A13U | 1.13
86 | U1C A13G | 0.79
87 | U1A G9C | 0.1
88 | U1A G9A | 0.28
89 | U1A U60C | 0.35
90 | U1A U60A | 0.56
91 | U1A C12G | 0.43
92 | U1A C12A | 1.14
93 | U1A C12U | 1.2
94 | U1A | 0.98
95 | U1C | 0.84
96 | U1C C12U | 1.22

Row | Variant | self-cleavage
97 | U1A U76C | 1.04
98 | U1A U41G | 0.27
99 | U1A U41A | 0.2
100 | U1A U41C | 0.89
101 | U1A U69A | 0.54
102 | U1A U69C | 0.61
103 | U1A U67C | 0.18
104 | U1C A15G | 0.6
105 | U1C A15C | 0.62
106 | U1C A15U | 0.55
107 | U1C A75U | 1.05
108 | U1C A75G | 0.79
109 | U1A A28U | 0.88
110 | U1A U48C | 0.63
111 | U1A A57G | 0.77
112 | U1A C29U | 0.52
113 | U1A G24A | 0.25
114 | U1A A13G | 0.8
115 | U1A A13U | 1.16
116 | U1A C68U | 0.82
117 | U1A C68A | 0.41
118 | U1A G36C | 0.09
119 | U1A G36A | 0.29
120 | U1A A77U | 1.05

Row | Variant | self-cleavage
121 | U1A A77G | 1.12
122 | U1C A47U | 0.47
123 | U1C A47G | 0.9
124 | U1A G10A | 0.25
125 | U1A G10C | 0.36
126 | U1A U31C | 0.65
127 | U1A U31A | 0.64
128 | U1A G52A | 1.1
129 | U1A G33A | 0.28
130 | U1A A45G | 0.75
131 | U1A A45U | 0.41
132 | U1A G6A | 0.27
133 | U1A U54A | 1.14
134 | U1A U54C | 1.08
135 | U1A U54G | 0.76
136 | U1A C14A | 1.17
137 | U1A C81U | 1.11
138 | U1C C23A | 0.22
139 | U1A A75U | 1.14
140 | U1A A75G | 0.9
141 | U1C A5U | 1.02
142 | U1C A5C | 0.82
143 | U1C A5G | 0.68
144 | U1C A64G | 0.8

Row | Variant | self-cleavage
145 | U1C A64U | 0.26
146 | U1A C27A | 0.22
147 | U1A G8A | 0.19
148 | U1C A3U | 0.83
149 | U1C A3G | 0.9
150 | U1C A65U | 0.31
151 | U1C A65G | 0.42
152 | U1A C38G | 0.45
153 | U1A C38U | 0.97
154 | U1A C38A | 0.35
155 | U1A C23G | 0.1
156 | U1A C23U | 0.22
157 | U1A G46A | 0.43
158 | U1C A28U | 0.67
159 | U1C A28G | 0.55
160 | U1A G16A | 0.38
161 | U1A U51A | 0.95
162 | U1A U51C | 0.92
163 | U1A A47U | 0.78
164 | U1A A47G | 1.01
165 | U1A A35U | 0.49
166 | U1A A35G | 1.25
167 | U1A G30A | 0.11
